B1: ZNF24 (parent)
chain: THTKEQILELVVLEQFVAILPKEL
B2: MNAT1 (parent)
chain: LAPIHKLEEALYEYQPLQIETYGP

Variants of: B1
Assay: protein stability index of a GFP-peptide fusion (GPS, HEK-293T) (PSI 1-6); higher = more stable
Details: c terminus: a fixed tail appended
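Further: lentivirally expressed fusions sorted by FACS into six bins by GFP to DsRed ratio, PSI derived from sequencing read proportions per bin multiplied by bin number.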

| Variant | protein stability index |
| --- | --- |
| THTKEQILELLVLEQFVAILPKEL [V11L] | 2.43 |
| THTKEQILELKVLEQFVAILPKEL [V11K] | 1.47 |
| THTKEQILELFVLEQFVAILPKEL [V11F] | 3.28 |
| THTKEQILELPVLEQFVAILPKEL [V11P] | 2.67 |
| THTKEQILELVVLEQFVHILPKEL [A18H] | 3.02 |
| THTKEQILELVVLEQFVQILPKEL [A18Q] | 2.48 |
| THTKEQILELVVLEQFVCILPKEL [A18C] | 3.45 |
| THTKEQILELVVLEQFVRILPKEL [A18R] | 2.05 |
| THTKAQILELVVLEQFVAILPKEL [E5A] | 2 |
| THTKQQILELVVLEQFVAILPKEL [E5Q] | 2.97 |
| THTKWQILELVVLEQFVAILPKEL [E5W] | 2.85 |
| THTKEQILLLVVLEQFVAILPKEL [E9L] | 2.62 |
| THGKEQILELVVLEQFVAILPKEL [T3G] | 4.09 |
| THPKEQILELVVLEQFVAILPKEL [T3P] | 2.96 |
| THTKEQILELVVLEQFVAILNKEL [P21N] | 3.62 |
| THTKEQILELVVLECFVAILPKEL [Q15C] | 1.66 |
| THTKEQILELVVLEFFVAILPKEL [Q15F] | 2.79 |
| THTKEQILELVVLETFVAILPKEL [Q15T] | 3.75 |
| THTKEQILELVVLEHFVAILPKEL [Q15H] | 2.53 |

| Variant | protein stability index |
| --- | --- |
| TNTKEQILELVVLEQFVAILPKEL [H2N] | 2.59 |
| TCTKEQILELVVLEQFVAILPKEL [H2C] | 2.25 |
| TITKEQILELVVLEQFVAILPKEL [H2I] | 3.4 |
| TVTKEQILELVVLEQFVAILPKEL [H2V] | 2.41 |
| THTDEQILELVVLEQFVAILPKEL [K4D] | 2.45 |
| THTKEQILELVRLEQFVAILPKEL [V12R] | 1.94 |
| THTKEQILELVVLEQFQAILPKEL [V17Q] | 2.02 |
| THTKEQILELVVLEQFYAILPKEL [V17Y] | 2.53 |
| THTKEQILELVVLEQFVATLPKEL [I19T] | 1.8 |
| THTKEQILELVVLEQFVAELPKEL [I19E] | 2.37 |
| THTKEQILELVVLEQFVAILPQEL [K22Q] | 2.7 |
| THTKEQILELVVLEQFVAILPAEL [K22A] | 2.63 |
| THTKEQILELVVLEQFVAILPKER [L24R] | 2.47 |
| THTKEQILELVVLEQFVAILPKEW [L24W] | 2.54 |
| THTKEQILELVVLEQFVAILPKET [L24T] | 2.7 |
| THTKEQILELVVLEQFVAIRPKEL [L20R] | 2.61 |
| THTKEQILELVVLEQFVAIFPKEL [L20F] | 2.83 |
| THTKEQILELVVLEQFVAISPKEL [L20S] | 2.33 |
| THTKEQILELVVLEQFVAIKPKEL [L20K] | 1.63 |

| Variant | protein stability index |
| --- | --- |
| THTKEQLLELVVLEQFVAILPKEL [I7L] | 2.16 |
| THTKEQFLELVVLEQFVAILPKEL [I7F] | 2.54 |
| THTKEQILETVVLEQFVAILPKEL [L10T] | 2.03 |
| THTKEQILELVVLIQFVAILPKEL [E14I] | 3.12 |
| THTKEQILELVVLDQFVAILPKEL [E14D] | 2.24 |
| THTKEQILELVVLSQFVAILPKEL [E14S] | 2.53 |
| THTKEQILELVVLQQFVAILPKEL [E14Q] | 2.97 |
| THTKEQILELVVLRQFVAILPKEL [E14R] | 2.95 |
| GHTKEQILELVVLEQFVAILPKEL [T1G] | 2.25 |
| YHTKEQILELVVLEQFVAILPKEL [T1Y] | 2.79 |
| PHTKEQILELVVLEQFVAILPKEL [T1P] | 3.09 |
| DHTKEQILELVVLEQFVAILPKEL [T1D] | 2.63 |
| THTKEQICELVVLEQFVAILPKEL [L8C] | 2.75 |
| THTKEQIHELVVLEQFVAILPKEL [L8H] | 2.1 |
| THTKEQIWELVVLEQFVAILPKEL [L8W] | 3.68 |
| THTKEDILELVVLEQFVAILPKEL [Q6D] | 1.55 |
| THTKEQILELVVREQFVAILPKEL [L13R] | 1.85 |
| THTKEQILELVVPEQFVAILPKEL [L13P] | 2.42 |

Variants of: B2
Assay: as above
Details: c terminus: a fixed tail appended

| Variant | protein stability index |
| --- | --- |
| LAPIHKLEEALYEYQPLQIEMYGP [T21M] | 3.53 |
| LAPIHKLEEALYEYQPLQIELYGP [T21L] | 3.23 |
| LAPIHKLEEALYEYQPLQIERYGP [T21R] | 2.09 |
| LAPIHKLEEALYEYQPLQIEDYGP [T21D] | 2.31 |
| LAPIHKLEEALYEYQPLQIENYGP [T21N] | 2.5 |
| LAPIHKLEEALYEYQPLQIEKYGP [T21K] | 2.5 |
| LAPIHKLEEALYEYQPLQIESYGP [T21S] | 2.23 |
| LAPIHKLEEALYEYQPLQIEQYGP [T21Q] | 1.57 |
| LAPIHKLEEALYEYQPLQIEYYGP [T21Y] | 2.38 |
| LAPIHKLEEALYEYQPLQIEHYGP [T21H] | 1.62 |
| LAPIHKLEEALYEYQPLQIEGYGP [T21G] | 1.98 |
| LAPIHKLEEALYEYQPLQIEWYGP [T21W] | 3.09 |
| LAPIHKLEEALYEYQPLQIEPYGP [T21P] | 2.46 |
| LAPIHKLEEALYEYQPLQIECYGP [T21C] | 3.14 |
| LAPIHKLEEALYEYQPLQIEFYGP [T21F] | 5.16 |
| LAPIHKLEEALYEYQPLQIEEYGP [T21E] | 1.8 |
| LAPIHKLEEALYEYQPLQIEAYGP [T21A] | 2.6 |
| LAPIHKLEEALYEYQPLQIETYGT [P24T] | 1.87 |
| LAPIHKLEEALYEYQPLQIETYGK [P24K] | 2.29 |

| Variant | protein stability index |
| --- | --- |
| LAPIHKLEEALYEYQPLQIETYGL [P24L] | 3.08 |
| LAPIHKLEEALYEYQPLQIETYGG [P24G] | 1.82 |
| LAPIHKLEEALYEYQPLQIETYGN [P24N] | 2.52 |
| LAPIHKLEEALYEYQPLQIETYGS [P24S] | 2.35 |
| LAPIHKLEEALYEYQPLQIETYGH [P24H] | 1.58 |
| LAPIHKLEEALYEYQPLQIETYGM [P24M] | 1.25 |
| LAPIHKLEEALYEYQPLQIETYGD [P24D] | 1.95 |
| LAPIHKLEEALYEYQPLQIETYGI [P24I] | 2.04 |
| LAPIHKLEEALYEYQPLQIETYGA [P24A] | 2.14 |
| LAPIHKLEEALYEYQPLQIETYGC [P24C] | 2.67 |
| LAPIHKLEEALYEYQPLQIETYGW [P24W] | 1.99 |
| LAPIHKLEEALYEYQPLQIETYGY [P24Y] | 2.37 |
| LAPIHKLEEALYEYQPLQIETYGQ [P24Q] | 1.75 |
| LAPIHKLEEALYEYQPLQIETYTP [G23T] | 1.3 |
| LAPIHKLEEALYEYQPLQIETYFP [G23F] | 1.92 |
| LAPIHKLEEALYEYQPLQIETYKP [G23K] | 2.86 |
| LAPIHKLEEALYEYQPLQIETYYP [G23Y] | 1.87 |
| LAPIHKLEEALYEYQPLQIETYRP [G23R] | 1.15 |
| LAPIHKLEEALYEYQPLQIETYIP [G23I] | 2.07 |

Reference: the supplement of paper PMC10567573
